For the test, the target named is T1, human IL-22 receptor (human IL-22Ra and human IL-10Rb) expressed on BHK reporter cells (human, UniProt Q8N6P7 16-574; Q08334 20-325).
T1 sequence (looked up) 1: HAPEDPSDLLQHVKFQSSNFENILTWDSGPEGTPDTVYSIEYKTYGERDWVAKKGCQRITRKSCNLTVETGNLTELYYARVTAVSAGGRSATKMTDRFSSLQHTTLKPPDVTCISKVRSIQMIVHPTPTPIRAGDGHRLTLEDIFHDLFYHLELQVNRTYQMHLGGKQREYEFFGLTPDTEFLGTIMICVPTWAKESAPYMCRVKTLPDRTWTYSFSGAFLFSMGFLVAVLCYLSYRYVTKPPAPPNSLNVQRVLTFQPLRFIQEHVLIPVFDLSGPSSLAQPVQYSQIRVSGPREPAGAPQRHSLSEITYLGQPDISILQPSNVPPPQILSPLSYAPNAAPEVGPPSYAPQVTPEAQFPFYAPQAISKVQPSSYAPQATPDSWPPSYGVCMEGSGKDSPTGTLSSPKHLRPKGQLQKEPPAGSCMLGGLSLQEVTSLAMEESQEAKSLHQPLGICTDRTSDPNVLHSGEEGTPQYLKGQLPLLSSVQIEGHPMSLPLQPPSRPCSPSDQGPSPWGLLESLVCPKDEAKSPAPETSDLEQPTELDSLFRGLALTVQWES
T1 sequence (looked up) 2: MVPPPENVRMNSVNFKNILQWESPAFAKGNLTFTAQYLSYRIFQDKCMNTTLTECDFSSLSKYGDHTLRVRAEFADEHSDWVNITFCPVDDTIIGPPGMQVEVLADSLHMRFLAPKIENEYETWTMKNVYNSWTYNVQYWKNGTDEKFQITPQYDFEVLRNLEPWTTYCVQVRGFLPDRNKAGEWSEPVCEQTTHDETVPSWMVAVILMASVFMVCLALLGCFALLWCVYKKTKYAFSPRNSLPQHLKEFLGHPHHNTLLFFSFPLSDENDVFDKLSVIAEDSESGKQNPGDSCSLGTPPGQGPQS
The test is described as follows: cell-based or functional assay.

B1: Derivative 1 (ligand)
chain: GPGCPISSHCRLDKSNFQQPYITNRTFMLAKEASLADNNTDVRLIGEKLFHGVSMSERCYLMKQVLNFTLEEVLFPQSDRFQPYMQEVVPFLARLSNRLSTCHIEGDDLHIQRNVQKLKDTVKKLGESGEIKAIGELDLLFMSLRNACI
modifications: C16 monoacid covalently attached through linker γGlu-OEG-OEG-εLys-αAc to Cys at position 1 of hIL-22 numbering (attachment site 1C; position 4 of SEQ ID NO. 20)
Take B1: the “EC50, BHK cell reporter gene assay (luciferase with STAT3-induced promoter)” value is 0.06 nM.

B2: native mature human IL-22 (ligand)
chain: APISSHCRLDKSNFQQPYITNRTFMLAKEASLADNNTDVRLIGEKLFHGVSMSERCYLMKQVLNFTLEEVLFPQSDRFQPYMQEVVPFLARLSNRLSTCHIEGDDLHIQRNVQKLKDTVKKLGESGEIKAIGELDLLFMSLRNACI
On to B2, for which the “EC50, BHK cell reporter gene assay (luciferase with STAT3-induced promoter)” value is 0.07 nM.

For the origin of these results see patent EP4089108A1 (Cytoki Pharma ApS, dated 2022).
